From article PMC3672174
“And” between values parts separate entries of the source, which are not always exact repeats. Equal entries are not always repeated.

Assays:
[1] = target: human serum amyloid A 1.1 (hSAA1.1), without the N-terminal methionine (human) (UniProt P0DJI8); assay: SEC; as a1, protein refolded at 75 µM; self-association
[2] = target: human serum amyloid A 1.1 (hSAA1.1), without the N-terminal methionine (human) (UniProt P0DJI8); assay: SEC; as a1, protein refolded at 8.5 µM; self-association
[3] = target: human serum amyloid A 1.1 (hSAA1.1), without the N-terminal methionine (human) (UniProt P0DJI8); assay: SEC; Superdex 200 10/300 GL, 4°C, protein refolded at 20 µM, ~30 µL loaded, column in TBS (20 mM Tris/200 mM NaCl, pH 8.3), 0.5 mL/min; sizes from MW standards, globular shape assumed; self-association
[4] = target: human serum amyloid A 1.1 with the N-terminal methionine (MetSAA1.1) (human) (UniProt P0DJI8); assay: SEC; "cross-purified" proteins (MetSAA1.1 also passed through Histrap Ni-NTA; hSAA1.1 also purified by cation and anion exchange), compared with "regular" proteins, refolded at 20 µM, 4°C; self-association
[5] = target: human serum amyloid A 1.1 with the N-terminal methionine (MetSAA1.1) (human) (UniProt P0DJI8); assay: SEC; as a1, protein refolded at 75 µM; self-association
[6] = target: human serum amyloid A 1.1 with the N-terminal methionine (MetSAA1.1) (human) (UniProt P0DJI8); assay: SEC; as a1, protein refolded at 8.5 µM; self-association
[7] = target: human serum amyloid A 1.1 with the N-terminal methionine (MetSAA1.1) (human) (UniProt P0DJI8); assay: SEC; Superdex 200 10/300 GL, 4°C, protein refolded at 20 µM, ~30 µL loaded, column in TBS (20 mM Tris/200 mM NaCl, pH 8.3), 0.5 mL/min; sizes from MW standards, globular shape assumed; self-association

Row | stoichiometry N [1] | stoichiometry N [2] | stoichiometry N [3] | stoichiometry N [4] | stoichiometry N [5] | stoichiometry N [6] | stoichiometry N [7] | Substance
1 | 8 and 6 | 4 and 8 | 8 and 6 | – | – | – | – | human serum amyloid A 1.1 (hSAA1.1), without the N-terminal methionine (from UniProt P0DJI8 19-122) (natural protein)
2 | – | – | – | 4 | 4 and 8 | 8 and 4 | 4 and 8 | human serum amyloid A 1.1 with the N-terminal methionine (MetSAA1.1) (from UniProt P0DJI8 19-122) (natural protein)
